Measurements: the DeepSol protein solubility set

Assay: soluble on expression in E. coli; label from the status in PepcDB or PDB records

Row | Sequence | soluble on expression in E. coli
1 | MNQPLAGYAPAPAGARMENHGNHMLKVAMQTGNDLLARVGSMTAYEGFVQYEPNPPAVRQIAKDWMTGEGAPLMKCSGDGLLYLADYGANVVVINLNGDGISVNATNLLAFDAHLTWGVERVKGLAKFAGQGLWNTKISGQGWVALTSRGKPIVVDCGGGEDETYVDPDALVAWSPNLKVKGKRSFKAQSLIGRGSGEAFQMAFSGQGIVVVQPSEDSTDRLRVRGLEHHHHHH | not soluble
2 | MSLDRELKNLHLNISQLAALSGAHRQTVAARVKNISPAGGHESNLKLYRLTDILAELMKAPLPVDNEEMDPHARKAWYQSERDRLKFEQETGQLVPVSDVRRSFSVVVKAIVQVLETWPDRLERDRGWTASQLNEVQIVVDEIRDTLEKAVIDCCDEADEGHHHHHH | soluble
3 | MSLGKATGFMEYDRIPSPGRDPKSRTRDWNEYSLPMPVADLTLQAARCMDCGVPFCSVGMEIKNGVSGCPLHNLIPEWNDAVYRGDWYEALQLLLKTNNFPEFTGRICPAPCEGGCTVAISEPAVGIKSIEKAIIDRGFEEGWIKPQPPKKRTGKRIAVIGSGPAGLACADQLNKAGHSVTVIEKSDRIGGLLMYGIPTMKLEKEQVTRRVNLMAEEGIEFVTGVAAGTDVTFAELRAEYDSIVLATGAGNARDIPLAGRDAAGIHFAVPYLTQSTRDNLDNGGVQTLSAKDKNVVIIGGGDTGADCVATALRQGAKSIYQFGIQDKLPELRNGENPWPQYPRVFKMDYAHEEAEAVYGRDPREYLINTTSFEKDAAGNLVGLHTVEVTEDKETRQYTPVEGSEKYFEVDMVLIAIGFSGTTEDIFTNFGVGKTERHTIDAAKGFYRTSEEGVFACGDARHGQSLVVTAIAEGREAAREVDFYLMGETFLEGHHHHHH | soluble
4 | MGSDKIHHHHHHMKNAMLVLCVFLGLSACADRDLMPIVPEAVEIGTPYTVFSTTTRAQEADGTYGFRRSEQLRMMEMTVTIPPNHSPGELSYRYKNPDPHKNFAIAEELPVASVSDLRARFLREQRENNWPLREVTIFVHGYNSTHPETAYRSAQMAHDVELPGSLVMYSWPSRGRAFGYAYDIDSMLFARDGLEETVRRVKQAGAERIILVAHSMGTALAMEMLRQADLRNPGWAARTLNGGVILISPDLDVDVFESQMMDLKQVPQPFGVMVSEKDHILNISGRLRGTSEGERLGNIKSAERLMKWPIEVIDLTAFNADAASGHFVAATSPSLLAVIRSASNVSRLFGPVDPTLFQQILPQSQTIVTDHGKLMLARQQRQEER | not soluble
5 | MNLVKLLANNWQPIAIIALVGTGLAVSHHQGYKSAFAKQQAVIDKMERDKAQALLLSAQNYARELELARAEAKKYEVKAHAVGMALAKKQAEVSRLKTERDLCKIPFPPDSRNPNTGFRLFSPQIPPNFTQIPP | not soluble
6 | MHHHHHHSSGRENLYFQGSVFGVPLTVNVQRTGQPLPQSIQQAMRYLRNHCLDQVGLFRKSGVKSRIQALRQMNEGAIDCVNYEGQSAYDVADMLKQYFRDLPEPLMTNKLSETFLQIYQYVPKDQRLQAIKAAIMLLPDENREVLQTLLYFLSDVTAAVKENQMTPTNLAVCLAPSLFHLNTLKRENSSPRVMQRKQSLGKPDQKDLNENLAATQGLAHMIAECKKL | soluble
7 | MGSDKIHHHHHHMIEFKEVSKRFGSTLALDKLDANFPTGKIIGLFGPNGAGKSTSIKMIAGLNRPDQGQVVIDGELPRMSKAQIAYLPEIDHLYPWMTIGQAAGFTRSFYVDWDNDKYHELLKYLNLNAEMKIGKISKGQRAKTKLLLTAARRAPYLLMDEPLSGIDILTREEIINTLVRDYREGEQTIIISTHEIAEVESLVDEVFFIDQGKIMLSGSAEEFRVERGQSLVEIMKEAFRHADQ | not soluble
8 | MGACPRFERASARGMIARNPIKQDPAMRNTQDDHSRFLSLVLRHQPETIGLQLDDQGWADIGELLARLAAKGRNLGRKQLEKIVLDNDKQRFAISEDGLRIRANQGHSIKIDLGLAACEPPDRLYHGTASRFLDAILAEGLRPGQRQHVHLSADGQTARKVGARHGKPVVLEIDARAMRQAGLAFYRSDNGVWLIDGVPPVFIRQTEARLEHHHHHH | soluble
9 | MLKLRFPLPVFRNAREIANGRNARMALKGLVANRAALIISPSFGSSQYFEQVVRLINAQSVRVIERSWQGEPSVEELSGVIGELEDFKPDYILALGGGSIIDGAKLAWLFYECPTLESELLYRPFALPSLRGRAKFAAIPTTVGAGSEVSSAAVMLDSVTNSKKAVVTHDFLPDLVILDPDLVSEVPPKVLKTTVADALSHAIEGYVSLIDNPLMNTFAEQAVSIIYRYRHQFSNDNWSSEMLSELQQAAMFAGWVQNHCIVGLSHAIAHQLGTFNIGHGLANGLLMPAVINFNYREHTAATKYEQLIYKSGLPNKEALLELFEVLVGEQKTDMHFSEQQLTTIAENALLDPAAKSNPVRFTENDVKEIVKQCL | not soluble
10 | MTQNTKLRPITPEFDPWEAYMDVDQYGDMQLTNVEFTTTTLCNMRCEHCAVGYTLQPKDPNALPIDLLLKRLEEIPRLRSISITGGEPMLSLKSVKEYVVPLLKYAHERGVRTQINSNLTLDIERYEWIIPYLDVLHISHNWGTVEDFAEIGFA | not soluble
11 | EANLKPENVEIHIIDDNFFLKWNSSSESVKNVTFSADYQILGTDNWKKLSGCQHITSTKCNFSSVELENVFEKIELRIRAEEGNNTSTWYEVEPFVPFLEAQIGPPDVHLEAEDKAIILSISPPGTKDSIMWAMDRSSFRYSVVIWKNSSSLEERTETVYPEDKIYKLSPEITYCLKVKAELRLQSRVGCYSPVYCINTTERHKVPSPENIQINADNQIYVLKWDYPYENATFQAQWLRAFFKKIPGNHSDKWKQIPNCENVTSTHCVFPREVSSRGIYYVRVRASNGNGTSFWSEEKEFNTEMKTIIFPPVISVKSVTDDSLHVSVGASEESENMSVNQLYPLIYEVIFWENTSNAERKVLEKRTNFIFPDLKPLTVYCVKARALIENDRRNKGSSVSDTVCEKTKPGNTSK | not soluble
12 | MGSDKIHHHHHHVTEAQTDPKYYDVVEATWPCLRCEKLGDITLRVGAGGGSRVSAATCDALVSDAQIAQAEAAMQDFDQPRLFMIRDGQDALDGQLERLGYAVMDPVALWTVAPSMLTDVEIPRVTTFCLWEPLAIQREIWATGGIGPERLAIMERATRPKTSILGRWDDKPAGAAFVGMHEGIAMLHALEILPHQRRKGMGVWMMRQAAYWAAEQGATELAVLCTRANAGANALYARLGMQQAGGYHYRIKR | not soluble
13 | KSKLGSKLNLIRNYKNLGITLNYKNGFKNCKGEYIAVLEGDDYWIQKSKLKRQVSFLESNRDCSLVFNKIVLDYGDEKINNLIYPFNDIRKKFSARELVRSNFIQNFSCCMYRKSSIRKLRESIYDMVVYDWMFNMAVAQFGLIGYIPNYMTSHRILKSGLWSGKSKMENLQMISKCIDQYDSFFKYKYRKEFSQNKQEVLQALRRLVMVNENG | not soluble
14 | GMEWQAEQAYNHLPPLPLDSKLAELAETLPILKACIPARAALAELKQAGELLPNQGLLINLLPLLEAQGSSEIENIVTTTDKLFQYAQEDSQADPMTKEALRYRTALYQCFTQLSNRPLCVTTALEICSTIKSVQMDVRKVPGTSLTNQATGEVIYTPPAGESVIRDLLSNWEAFLHNQDDVDPLIKMAMAHYQFEAIHPFIDGNGRTGRVLNILYLIDQQLLSAPILYLSRYIVAHKQDYYRLLLNVTTQQEWQPWIIFILNAVEQTAKWTTHKIAAARELIAHTTEYVRQQLPKIYSHELVQVIFEQPYCRIQNLVESGLAKRQTASVYLKQLCDIGVLEEVQSGKEKLFVHPKFVTLMTKDSNQFSRYAL | soluble
15 | MSLTKPIIGITANVRPNPAHEDIKWSYAPSGFVEGVQKAGGLAILLPVSDPLEAKTYISMIDKLILIGGQNIDPKFYNEENHACEDDFFLERDLFEMALIEEATKQKKPIFSICRGTQLMNVALGGSLHQDIKRHWQDKPSDYLYHEIIIDKNSKLAEIYGLETSINSFHHQSIKHLASDLRVIARDPEDNTVEAIESNTPDLRYLGVQWHPELLLNKREEDLKLFEYVVDELEGHHHHHH | soluble
16 | MNTNLAELPVRIFKILSEELQKDNIWIKIVEFDEDPIYYMKSTEIESFLKREKCCEQVLRKWGNRGQTVGSLLARLQFLSRTYEDEFDSIQFHLRRKFKPLRWIPDPEQQVTKEIDEGNIKLECKAQGFPCPEIKWFTKGSKEPVHIGRVYTILRCKCSNEHQYKCVAKNEIREGSPYSEIYRKAGKQFSSVIESEYVDVTSCIRDDELCESCKKYEMGRLSQILAEDQEKPENKVSPVRPNLDITLRAADKVALIMSNCSYVHLPELRTPHCDAQTLADALQKMNYKTVTLADLTLDEMRYFIRVYQKLIGNGVYAVFYFVGHGFEVNGQCYLLGVDAPADAHQPQHSMSMDWLLSIFRHKTPDLNLLLLDVCRKFVPYDAISAFVEYSEQFKKFHRAHRNMVYGYSTSGGVGAYEVKGEVNGVFMKYLKNHVQLEISVIDMLNKVLLDIGDDQKVCDLQVPEIRSTLTHPRSLADPLIFDGHTASFDNHTIHWRLMHELPTPATIRFETQQLVATIWFQFCGNFTNKVYVFASISDFRPCQEDTDMGENEELSENALNHRAFVEFPEELHCSDVREYNDDEEGVSMLWILSGLQKIKKEAGLTCEVHLRHVDDPEKTIEMKNVDIGHILITRIKCLQ | not soluble
17 | MGSDKIHHHHHHMFKKLAADLTGFSDIGQVIHPDDFDKAAADDYVLHEDGEKIYFLIKSKTDEYCFTNLALVHLDGESAVSSKRVLYRYPYAHYPIRHVMFETAGTVDLDVEIKFEIGGKHYSIDVDKKQLEHVKDLYKALLAIAEKQYEGQKMLEFANSSLNHSVTILGGLRQGDMNVPQTFKDLSQESFDWLQGHYYKWNQKDFGSFYEKYINN | not soluble
18 | MGSVEIPTKVLTNTSSQLKMPVVGMGSAPDFTCKKDTKDAIIEAIKQGYRHFDTAAAYGSEQALGEALKEAIELGLVTRDDLFVTSKLWVTENHPHLVIPALQKSLKTLQLDYLDLYLIHWPLSSQPGKFSFPIDVADLLPFDVKGVWESMEESLKLGLTKAIGVSNFSVKKLENLLSVATVLPAVNQVEMNLAWQQKKLREFCNAHGIVLTAFSPVRKGASRGPNEVMENDMLKEIADAHGKSVAQISLRWLYEQGVTFVPKSYDKERMNQNLRIFDWSLTKEDHEKIAQIKQNRLIPGPTKPGLNDLYDD | soluble
19 | MAVARWLRDHSGPDDVVATNAHCRFAVSDSCDNRHFWISGYTERRVLVEGWGYTARTLASLTDVDREPMGAVPFWDAELLAANDAVFTAPTARAVDLLARRYGVRWLMVDRRRPLTAPDLGQFARLRYARGSFAVYSTLS | not soluble
20 | SMQPIVIHSSGKNYGFTIRAIRVYVGDSDIYTVHHIVWNVEEGSPACQAGLKAGDLITHINGEPVHGLVHTEVIELLLKSGNKVSITTTPFENTETSV | soluble
21 | MAGHSKWAQIKRKKAANDLKRGKLISKHLRAIQAAARAGGSPYPEANVQLRNAIEAARADDVPMENIERLLQKLQGGGEGAEQYEEIVYEGYAPGGVALLVYALTDNRNRTASEVRHVFSKHGGSLGTTGSVAWQFERRGVVVCENTEAAQEAAIELGALDLEEEGENLTVYTEPTEAYRIAEALKAKGVRVEAVEVVQHPQNTVALPPEEAQKVMRLVEALEDLDDVQHVYTNLDPESLQVEA | soluble
22 | MGSDKIHHHHHHMTINDLQAFVMVYDLRHISNAAVELHLSQSELSKRMRALENELNIKLLDTHNKRRLQITPAGETFYHHAHKMITDYETMMHDLAPNRPTTFAKLIIGAIPISGQYNIAKKIATFDTQHPDTEIKIIEDEGDQIVKRLLSGELQAAIIRDTQTTQLQPTEFQKQPLLADELKIILPRDHPLATQPVIRIQDLARQKIATLPPGSGVYEPINALFAQQGMTPQFFFESTHIETLLGILNQNNVTFLFKQSVLPFMTEHVVMRSLAIPFISQLNFVYPQRTGNQLLTDLIDYLTVTAQENQQV | not soluble
